Where two headings read alike, the source gives them in different places. One block for each substance: values may come before it.
What was measured:
[1] = biological target: 40S ribosomal subunit (rabbit reticulocyte lysate) (rabbit (endogenous in rabbit reticulocyte lysate)) (UniProt G1TM55)
[2] = biological target: 40S ribosomal subunit (rabbit reticulocyte lysate) (rabbit (endogenous in rabbit reticulocyte lysate)) (UniProt G1TM55); remark: listed apart in the source
[3] = biological target: 40S ribosomal subunit (rabbit reticulocyte lysate) (rabbit (endogenous in rabbit reticulocyte lysate)) (UniProt G1TM55); remark: listed apart in the source
[4] = biological target: 40S ribosomal subunit (rabbit reticulocyte lysate) (rabbit (endogenous in rabbit reticulocyte lysate)) (UniProt G1TM55); remark: listed apart in the source

- in vitro translation of nLuc mRNA in 20% RRL, titration of recombinant protein (0-3.4 μM); IC50 of inhibition of translation [1]: 190 nM
Substance: MBP-eIF2A-His6 (from UniProt Q9BY44-1 1-585) (natural protein)

- in vitro translation of nLuc mRNA in 20% RRL, titration of recombinant protein (0-3.4 μM); IC50 of inhibition of translation [2]: 130 nM
Substance: tag-less eIF2A (from UniProt Q9BY44-1 1-585) (natural protein)

Substance: MBP-eIF2A-His6-FLAG (from UniProt Q9BY44-1 1-585) (natural protein)
- in vitro translation of nLuc mRNA in 20% RRL, titration of recombinant protein (0-3.4 μM); IC50 of inhibition of translation [3]: 370 nM
- in vitro translation of CrPV IGR IRES nLuc mRNA in RRL, titration (0-3.4 μM); IC50 of inhibition of translation [4]: 630 nM
- in vitro translation of EMCV IRES nLuc mRNA in RRL, titration (0-3.4 μM); IC50 of inhibition of translation [4]: 690 nM
- in vitro translation of HCV IRES nLuc mRNA in RRL, titration (0-3.4 μM); IC50 of inhibition of translation [4]: 490 nM
- in vitro translation of PV IRES nLuc mRNA in RRL, titration (0-3.4 μM); IC50 of inhibition of translation [4]: 840 nM
